Test [1] addresses T1, alanine:glyoxylate aminotransferase 1, wild-type (major haplotype) (Homo sapiens, major haplotype, UniProt P21549). Nature of the test: SPR. In general terms: Surface plasmon resonance follows binding to a sensor surface in real time, without labels.
The target in test [2] is T1, alanine:glyoxylate aminotransferase 1, …. In words: ELISA.

T1 sequence (P21549 whole entry): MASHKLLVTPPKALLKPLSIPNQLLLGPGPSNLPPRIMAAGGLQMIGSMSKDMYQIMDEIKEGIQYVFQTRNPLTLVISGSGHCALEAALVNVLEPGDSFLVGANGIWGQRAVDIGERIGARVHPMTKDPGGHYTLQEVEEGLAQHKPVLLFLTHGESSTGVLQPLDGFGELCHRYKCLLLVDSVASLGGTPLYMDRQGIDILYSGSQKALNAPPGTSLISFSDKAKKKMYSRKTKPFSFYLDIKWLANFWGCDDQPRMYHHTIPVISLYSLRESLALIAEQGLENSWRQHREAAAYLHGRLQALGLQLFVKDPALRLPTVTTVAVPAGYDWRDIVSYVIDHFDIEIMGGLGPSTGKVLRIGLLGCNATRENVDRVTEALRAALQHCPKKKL

B1: NB-AGT-4 (VHH)
VHH: QVQLVESGGGLVQSGGSLRLSCVASGGTFSTWSMGWFRQAPGKEREFVAVISWSGTIADYGDSVKGRFTISRDNAKNTVYLQMNSLKPEDTAVYYCAADPVGRVLYSDVGWQYWGQGTQVTVS
For B1, the binding result in test [1] is “binds”.

B2: NB-AGT-4, HA-tagged clone from the phage display vector (VHH)
VHH: QVQLVESGGGLVQSGGSLRLSCVASGGTFSTWSMGWFRQAPGKEREFVAVISWSGTIADYGDSVKGRFTISRDNAKNTVYLQMNSLKPEDTAVYYCAADPVGRVLYSDVGWQYWGQGTQVTVS
On to B2, for which, in test [2], the binding result was “binds”.

B3: NB-AGT-2 (VHH)
VHH: QVQLVESGGGLVQAGGSLRLSCAASGRTFSSYAMGWFRQAPGKEREFVAAINWSGGSTFYADSVKGRFTISRDNAKNTVYLQMNSLKPEDTAVYYCAAARADPYYSISYYSTTHEYDYWGQGTQVTVS
For the molecule B3, the binding result in test [1] was “binds”.

B4: NB-AGT-2, HA-tagged clone from the phage display vector (VHH)
VHH: QVQLVESGGGLVQAGGSLRLSCAASGRTFSSYAMGWFRQAPGKEREFVAAINWSGGSTFYADSVKGRFTISRDNAKNTVYLQMNSLKPEDTAVYYCAAARADPYYSISYYSTTHEYDYWGQGTQVTVS
With B4, in test [2], the binding result is “binds”.

B5: NB-AGT-3 (VHH)
VHH: QVQLVESGGGLVQAGGSLILSCAASGFTFGHYAIGWFRQAPGKEREGVSCINSNDGSTYYADSVKGRFTISSDNAKNTVYLQMNSLKPEDTAVYYCAADYPPYYCSGYGWPSDGINYWGKGTQVTVS
With B5, the binding result in test [1] was “binds”.

B6: NB-AGT-3, HA-tagged clone from the phage display vector (VHH)
VHH: QVQLVESGGGLVQAGGSLILSCAASGFTFGHYAIGWFRQAPGKEREGVSCINSNDGSTYYADSVKGRFTISSDNAKNTVYLQMNSLKPEDTAVYYCAADYPPYYCSGYGWPSDGINYWGKGTQVTVS
In the case of B6, in test [2], the binding result is given as “binds”.

B7: NB-AGT-6, HA-tagged clone from the phage display vector (VHH)
VHH: QVQLVESGGGSVQTGGSLRLACVASGFTSDHYSIGWFRQAPGKEREGVSCIGMHDGSTKYAESVKGRFTISSDNDKNTVYLQMNSLKPEDTAVYYCAAGPLVLLDSDTYQSWGEGTQVTVS
B7: the binding result in test [2] is “binds”.

B8: NB-AGT-6 (VHH)
VHH: QVQLVESGGGSVQTGGSLRLACVASGFTSDHYSIGWFRQAPGKEREGVSCIGMHDGSTKYAESVKGRFTISSDNDKNTVYLQMNSLKPEDTAVYYCAAGPLVLLDSDTYQSWGEGTQVTVS
Take B8: the binding result in test [1] is “binds”.

The record behind these values is doi:10.1101/2025.04.12.648492 (bioRxiv, 2025).
